Results reported in publication PMC10783487.

Biological target: T1, TbrCan2 E341A E341A (Thermoanaerobacter brockii subsp. finnii Ako-1 DSM 1457) (UniProt E8URK0)
T1 sequence: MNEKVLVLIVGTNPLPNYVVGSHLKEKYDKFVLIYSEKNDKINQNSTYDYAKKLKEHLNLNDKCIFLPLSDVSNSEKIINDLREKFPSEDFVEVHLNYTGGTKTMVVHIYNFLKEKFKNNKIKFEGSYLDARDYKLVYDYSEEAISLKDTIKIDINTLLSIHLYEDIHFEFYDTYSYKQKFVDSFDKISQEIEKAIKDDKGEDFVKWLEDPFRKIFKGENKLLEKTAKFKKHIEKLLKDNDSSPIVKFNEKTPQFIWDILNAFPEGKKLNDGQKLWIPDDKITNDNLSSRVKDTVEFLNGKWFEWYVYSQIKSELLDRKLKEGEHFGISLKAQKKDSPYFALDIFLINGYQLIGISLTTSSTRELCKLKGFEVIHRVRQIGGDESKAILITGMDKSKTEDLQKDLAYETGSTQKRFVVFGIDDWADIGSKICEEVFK
Assay: EMSA

For ssRNA substrate, the Kd was 240 nM.
